Reference: patent US8586034B2, “Cytomegalovirus disintegrin-like peptides” (priority 2004, dated 2013)

T1: β3 integrin (Homo sapiens, UniProt P05106)
T1 construct: endogenous in cells; host or cells: Normal Human Dermal Fibroblasts (NHDF), detergent lysate
T1 sequence (P05106 27-788): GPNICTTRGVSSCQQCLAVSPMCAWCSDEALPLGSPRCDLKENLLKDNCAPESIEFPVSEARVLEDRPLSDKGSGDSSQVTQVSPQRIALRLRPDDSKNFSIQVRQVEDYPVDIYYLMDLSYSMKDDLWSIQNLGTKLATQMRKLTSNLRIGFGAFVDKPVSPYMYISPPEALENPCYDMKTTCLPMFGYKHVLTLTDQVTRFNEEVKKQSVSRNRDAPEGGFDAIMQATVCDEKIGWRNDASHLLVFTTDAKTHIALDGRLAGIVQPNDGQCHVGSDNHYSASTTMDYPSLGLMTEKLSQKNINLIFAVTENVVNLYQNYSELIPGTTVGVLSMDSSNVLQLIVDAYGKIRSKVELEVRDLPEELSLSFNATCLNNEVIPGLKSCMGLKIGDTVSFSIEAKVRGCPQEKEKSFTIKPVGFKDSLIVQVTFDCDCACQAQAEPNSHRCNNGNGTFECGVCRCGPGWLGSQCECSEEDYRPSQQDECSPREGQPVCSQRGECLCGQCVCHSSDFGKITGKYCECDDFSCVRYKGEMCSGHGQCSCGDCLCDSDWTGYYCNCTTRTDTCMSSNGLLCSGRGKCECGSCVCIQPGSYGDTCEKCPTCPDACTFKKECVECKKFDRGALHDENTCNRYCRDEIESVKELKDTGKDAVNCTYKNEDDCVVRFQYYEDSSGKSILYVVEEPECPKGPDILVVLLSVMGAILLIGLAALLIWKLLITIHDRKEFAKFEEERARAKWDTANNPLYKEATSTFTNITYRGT

B1: EGF: known cytoskeletal reorganizer (protein, UniProt P01133 23-1207, looked up)
Pro-epidermal growth factor: PQHWSCPEGTLAGNGNSTCVGPAPFLIFSHGNSIFRIDTEGTNYEQLVVDAGVSVIMDFHYNEKRIYWVDLERQLLQRVFLNGSRQERVCNIEKNVSGMAINWINEEVIWSNQQEGIITVTDMKGNNSHILLSALKYPANVAVDPVERFIFWSSEVAGSLYRADLDGVGVKALLETSEKITAVSLDVLDKRLFWIQYNREGSNSLICSCDYDGGSVHISKHPTQHNLFAMSLFGDRIFYSTWKMKTIWIANKHTGKDMVRINLHSSFVPLGELKVVHPLAQPKAEDDTWEPEQKLCKLRKGNCSSTVCGQDLQSHLCMCAEGYALSRDRKYCEDVNECAFWNHGCTLGCKNTPGSYYCTCPVGFVLLPDGKRCHQLVSCPRNVSECSHDCVLTSEGPLCFCPEGSVLERDGKTCSGCSSPDNGGCSQLCVPLSPVSWECDCFPGYDLQLDEKSCAASGPQPFLLFANSQDIRHMHFDGTDYGTLLSQQMGMVYALDHDPVENKIYFAHTALKWIERANMDGSQRERLIEEGVDVPEGLAVDWIGRRFYWTDRGKSLIGRSDLNGKRSKIITKENISQPRGIAVHPMAKRLFWTDTGINPRIESSSLQGLGRLVIASSDLIWPSGITIDFLTDKLYWCDAKQSVIEMANLDGSKRRRLTQNDVGHPFAVAVFEDYVWFSDWAMPSVMRVNKRTGKDRVRLQGSMLKPSSLVVVHPLAKPGADPCLYQNGGCEHICKKRLGTAWCSCREGFMKASDGKTCLALDGHQLLAGGEVDLKNQVTPLDILSKTRVSEDNITESQHMLVAEIMVSDQDDCAPVGCSMYARCISEGEDATCQCLKGFAGDGKLCSDIDECEMGVPVCPPASSKCINTEGGYVCRCSEGYQGDGIHCLDIDECQLGEHSCGENASCTNTEGGYTCMCAGRLSEPGLICPDSTPPPHLREDDHHYSVRNSDSECPLSHDGYCLHDGVCMYIEALDKYACNCVVGYIGERCQYRDLKWWELRHAGHGQQQKVIVVAVCVVVLVMLLLLSLWGAHYYRTQKLLSKNPKNPYEESSRDVRSRRPADTEDGMSSCPQPWFVVIKEHQDLKNGGQPVAGEDGQAADGSMQPTSWRQEPQLCGMGTEQGCWIPVSSDKGSCPQVMERSFHMPSYGTQTLEGGVEKPHSLLSANPLWQQRALDPPHQMELTQ
modifications: Pro-epidermal growth factor
notes: known cytoskeletal reorganizer
B2: gBDLD: amino acids 57-146 of HCMV AD 169 glycoprotein B disintegrin-like domain, His-tagged, expressed in E. coli (protein)
chain: VTSSEAVSHRANETIYNTTLKYGDVVGVNTTKYPYRVCSMAQGTDLIRFERNIICTSMKPINEDLDEGIMVVYKRNIVAHTFKVRVYQKV
modifications: left off: small tags and cut ends
notes: amino acids 57-146 of HCMV AD 169 glycoprotein B disintegrin-like domain, His-tagged, expressed in E. coli

Key:
NHDF cells = test: Cytoskeletal rearrangement, actin staining with phalloidin; type: cell-based, human; settings: compared to buffer alone
Excerpt: β1 integrins are known inducers of broad signal transduction events. […] To test the role of gBDLD in mediating signaling events, we stimulated NHDF cells with buffer alone, gBDLD, or a known cytoskeletal reorganizer (EGF), followed by actin staining with phalloidin.

β1 integrin = target: T2, β1 integrin (Homo sapiens, UniProt P05556); test: Integrin co-immunoprecipitation assay, β1; type: binding; settings: human fibroblast lysates, nickel beads
T2 construct: endogenous in cells; host or cells: Normal Human Dermal Fibroblasts (NHDF), detergent lysate
T2 sequence (P05556 21-798): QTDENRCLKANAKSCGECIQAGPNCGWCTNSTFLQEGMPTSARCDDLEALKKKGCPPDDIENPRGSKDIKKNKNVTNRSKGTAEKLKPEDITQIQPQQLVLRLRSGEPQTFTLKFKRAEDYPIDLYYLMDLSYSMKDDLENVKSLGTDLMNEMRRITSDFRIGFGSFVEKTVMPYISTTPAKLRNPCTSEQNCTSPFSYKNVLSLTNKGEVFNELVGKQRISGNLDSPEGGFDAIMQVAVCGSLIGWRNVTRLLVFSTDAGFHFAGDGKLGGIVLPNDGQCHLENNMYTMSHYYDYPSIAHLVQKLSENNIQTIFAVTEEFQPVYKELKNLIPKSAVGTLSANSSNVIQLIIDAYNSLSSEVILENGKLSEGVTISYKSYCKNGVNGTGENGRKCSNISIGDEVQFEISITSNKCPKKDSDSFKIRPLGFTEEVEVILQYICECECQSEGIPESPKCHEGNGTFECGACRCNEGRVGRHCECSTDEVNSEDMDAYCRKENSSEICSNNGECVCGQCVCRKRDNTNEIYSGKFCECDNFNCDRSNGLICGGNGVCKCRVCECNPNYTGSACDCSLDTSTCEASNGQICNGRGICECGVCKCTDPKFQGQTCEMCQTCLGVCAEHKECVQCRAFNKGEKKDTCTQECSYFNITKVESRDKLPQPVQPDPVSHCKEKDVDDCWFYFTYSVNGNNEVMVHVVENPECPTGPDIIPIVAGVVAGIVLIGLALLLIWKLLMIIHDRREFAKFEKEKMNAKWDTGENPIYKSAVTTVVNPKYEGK
Protocol: (§1) A T-175 flask of NHDFs was grown to complete confluence, washed three times in MES buffer and lysed in 1 mL MES buffer+1% TX-100 (a detergent). Lysate was spun at 10,000 g for 10 minutes to remove cell debris. Cell lysate (350 μL) was then incubated with 20 μg gBDLD for 4 hours at 4° C. The lysate+gBDLD mixture was then incubated with 50 μL Ni beads overnight at 4° C. Nickel beads were then washed three times and protein eluted by boiling and then adding reducing SDS-PAGE buffer. Proteins were separated by SDS-PAGE and Western blotted for β1 integrin (Chemicon-1965) or β3 (Chemicon) as previously described.^48
(§2) To identify the cellular receptor for gBDLD we performed co-immunoprecipitation studies. Briefly, gBDLD was incubated with human fibroblast lysates and pulled down with nickel-conjugated agarose beads.
(§3) Because gBDLD contains a known β1 integrin binding motif, gBDLD bound to its cellular receptor was isolated by SDS-PAGE and then Western blotted for either β1 or β3 integrin. The resulting gels are shown in FIG. 10 (β1) and FIG. 11 (β3).

HCMV-GFP = test: HCMV infectivity assay (HCMV-GFP, flow cytometry); type: cell-based, Human cytomegalovirus; settings: human fibroblasts
Protocol: NHDFs were washed three times with MES buffer followed by the addition of gBDLD for 60 minutes at 37° C. Cells were then washed twice with MES buffer, three times with PBS and inoculated with HCMV-GFP (MOI=0.5) in serum-free DMEM. After 60 minutes, virus was removed and a 30 second, low-pH citrate wash was performed to remove extracellular virus. Twenty-four hour, post-infection cells were harvested and flow cytometry was performed to assay for GFP-positive cells.
FIG. 9 is a graph depicting the results of an assay to determine if gBDLD blocks NHDF cells from infection with HCMV. The infectivity assay was performed as described in the earlier examples. Briefly, gBDLD or BSA was added to human fibroblasts for 60 minutes. Cells were then washed, followed by HCMV-GFP challenge for 60 minutes. Cells were then citrate washed to remove any extracellular virus and incubated overnight. Flow cytometry was performed to assay for GFP positive versus total cells. As is readily observed from FIG. 9, gBDLD exerts a dose-dependent inhibition of HCMV infectivity in the cells tested.

diI-labeled HCMV = type: cell-based, Human cytomegalovirus; settings: gBDLD or BSA 320 μg/mL, soluble heparin 50 μg/mL; 24 hours post-infection
[1] = target: Normal human dermal fibroblasts; test: Protein binding assay, gBDLD to fibroblasts (His-tag ELISA)
Protocol: Normal human dermal fibroblasts were chilled to 4° C., washed three times with cold MES buffer and blocked with 1 mg/mL bovine serum albumin (BSA) for 30 minutes at 4° C. Unbound BSA was removed with cold MES washes (×4). The indicated amounts of gBDLD were added to each well for 90 minutes at 4° C. Cells were then washed three times with cold MES, twice with cold (phosphate-buffered saline (PBS) and fixed with 3% paraformaldehyde. An ELISA was then performed probing with anti-His rabbit polyclonal antibody (Santa Cruz Biotechnology, Santa Cruz, Calif.) and anti-rabbit HRP (Pierce). Absorbance was measured at 405 nm.
FIG. 7 is a graph depicting the results of a gBDLD binding assay (performed as described previously). Here, binding was measured by absorbance at 405 nm. […] To generate the data, human fibroblasts were incubated with gBDLD for the indicated times at 4° C. Cells were then washed, fixed and an ELISA was performed probing for the gBDLD […] his-tag. […]
FIG. 8 is a graph depicting gBDLD binding to human fibroblasts. As is readily apparent from FIG. 8, this binding is dose-dependent and saturable. […] After three IVIES washes and two PBS washes, cells were fixed in 3% paraformaldehyde and a His-tag ELISA was performed to quantitate gBDLD bound to cells.

β3 integrin = target: T1, β3 integrin; test: Integrin co-immunoprecipitation assay, β3; type: binding; settings: human fibroblast lysates, nickel beads
Protocol: as §1, §2, §3

[2] = Solubility of purified gBDLD in dialysis buffer; type: physicochemical; settings: 55 mM MES, pH 5.5, 300 mM NaCl
Protocol: DNA sequence corresponding to amino acids 57-146 of HCMV AD 169 glycoprotein B disintegrin-like domain (“gBDLD”) was cloned into the bacterial expression vector pET-28a containing an N-terminal His-Tag with thrombin cleavage site and kanamycin resistance. (Commercially available from Novagen, San Diego, Calif.) gBDLD production was induced by the addition of 1 mM isopropyl-βD-thiogalactopyranoside (IPTG). E. coli Tuner strain containing pET-28a:gBDLD was grown at 37° C. in Luria-Bertani medium containing kanamycin (50 μg/mL) to an optical density at 600 nm of approximately 0.6. IPTG (1 mM) was added and the plates were incubated continuously for 4 h at 37° C. Cells were harvested by centrifugation at 4000 r/min for 10 min and pellets were resuspended in 1% Triton X-100/Ni-NTA buffer (300 mM NaCl/50 mM Tris-HCL pH 7.9) and lysed by 3×60 s bursts of sonication. The lysate was centrifuged at 15,000 r/min for 15 minutes at 4° C. The 8M urea/Ni-NTA fraction was then poured into a chromatography column containing nickel-nitriloacetic acid agarose (Ni-NTA) beads at 4° C. and allowed to flow through. […] Fractions containing protein were determined by measuring the absorbance of each fraction at 214 nm. Fractions that corresponded to absorption peaks were analyzed by sodium dodecyl sulfate polyacrylamide electrophoresis (SDS-PAGE) to determine the size of the protein. […]

Molecule | reorganization of the cytoskeleton (NHDF cells) | interaction with β1 integrin (pull down, Western blot) (β1 integrin) | IC50 for HCMV neutralization (HCMV-GFP) | IC50 (HCMV-GFP; read-out: IC50 for HCMV neutralization) | HCMV fusion (dye transfer) and gene expression (diI-labeled HCMV) | kinetics of gBDLD binding to human fibroblasts ([1]; 4° C., ELISA for his-tag) | concentration at which gBDLD binding to fibroblast monolayers reached saturation ([1]; 60 minutes, after BSA block) | interaction with β3 integrin (pull down, Western blot) (β3 integrin) | Solubility [2]
B1 | triggered a dramatic reorganization of the cytoskeleton | – | – | – | – | – | – | – | –
B2 | triggered a dramatic reorganization of the cytoskeleton | interacts | 20.5 µg/mL | 1.96 µM | complete block | rapid kinetics | 12.5 µg/mL | does not interact | approximately 1 mg/mL
